Data on 40 sequences can be found in the supplement of paper PMC7877785.

The data set can be described thus: self-splicing fitness, log relative to wild type (ln ratio); higher = more splicing; Tetrahymena group I intron in knt gene, E. coli kanamycin selection, DiMSum; sequences stand for … in CUCUCU…GGAGGGAAAAGUUAUCAGGCAUGCACCUGGUAGCUAGUCUUUAAACCAAUAGAUUGCAUCGGUUUAAAAGGCAAGACCGUCAAAUUGCGGGAAAGGGGUCAACAGCCGUUCAGUACCAAGUCUCAGGGGAAACUUUGAGAUGGCCUUGCAAAGGGUAUGGUAAUAAGCUGACGGACAUGGUCCUAACCACGCAGCCAAGUCCUAAGUCAACAGAUCUUCUGUUGAUAUGGAUGCAGUUCACAGACUAAAUGUCGGUCGGGGAAGAUGUAUUCUUCUCAUAAGAUAUAGUCGGACCUCUCCUUAAUGGGAGCUAGCGGAUGAAGUGAUGCAACACUGGAGCCGCUGGGAACUAAUUUGUAUGCGAAAGUAUAUUGAUUAGUUUUGGAGUACUCGUGGUCG
The procedure, abridged: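 Six replicate transformations of E. coli BL21(DE3) with a pET-22b(+) library were grown overnight at 37°C or 30°C. The library randomised all eight P1ex-region intron nucleotides, the intron lying in the knt kanamycin-resistance gene, and plates were LB agar with or without 25 μg/mL kanamycin plus 100 μg/mL carbenicillin, 50 μM IPTG and 0.2% rhamnose. Pooled colonies were amplicon-sequenced on an Illumina HiSeq 2500, and fitness is the DiMSum error-weighted combination of wild-type-normalised replicate fold changes, kanamycin versus none.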

± gives the uncertainty stated by the source.

On to UGAAAGCAAUAUUACGAUCG, for which the “self-splicing fitness (ln)” value is -0.144 ± 0.15 (30 °C) and 0.0927 ± 0.17 (37 °C).
For ACUUAGCAAUAUUACGUCCA the same measures were -1.56 ± 0.2 and -0.528 ± 0.2.
In the same order, the values of UACUAGCAAUAUUACGUUUA are -2.47 ± 0.16 and -1.05 ± 0.12.
For UAGCAGCAAUAUUACGCCCG the same measures were -0.432 ± 0.18 and -0.57 ± 0.21.
Regarding GUGCAGCAAUAUUACGACCA, the “self-splicing fitness (ln)” value was -0.711 ± 0.1 (30 °C) and -0.667 ± 0.13 (37 °C).
As to CUUCAGCAAUAUUACGUAAU, the “self-splicing fitness (ln)” value (30 °C) was -2.76 ± 0.13 and the “self-splicing fitness (ln)” value (37 °C) is -0.639 ± 0.1.
In the same order, the values of ACACAGCAAUAUUACGAUAA are -2.46 ± 0.098 and -1.97 ± 0.11.
Take AUCAAGCAAUAUUACGGGGA: the “self-splicing fitness (ln)” value (30 °C) is -1.43 ± 0.12 and the “self-splicing fitness (ln)” value (37 °C) is -1.49 ± 0.13.
For GAUCAGCAAUAUUACGGCAA the same measures were -0.689 ± 0.084 and -1.24 ± 0.087.
In the same order, the values of GUCCAGCAAUAUUACGACGC are -0.776 ± 0.094 and 0.435 ± 0.12.
For ACUAAGCAAUAUUACGUCGC the same measures were -3.12 ± 0.18 and -1.86 ± 0.2.
GAUGAGCAAUAUUACGAUUC: under “30 °C”, the “self-splicing fitness (ln)” value was -2.42 ± 0.46.
For the sequence AGCGAGCAAUAUUACGGAGU, the “self-splicing fitness (ln)” value reads like this: (30 °C) -3.99 ± 0.28; (37 °C) -3.15 ± 0.3.
Turning to UGGGAGCAAUAUUACGCCCA, for the setting “30 °C”, the “self-splicing fitness (ln)” value was -1.61 ± 0.4.
As to GAGUAGCAAUAUUACGGGAG, the “self-splicing fitness (ln)” value was -2.18 ± 0.19 (30 °C) and -3.1 ± 0.24 (37 °C).
With AGUAAGCAAUAUUACGGCAG, the “self-splicing fitness (ln)” value (30 °C) is -2.1 ± 0.16 and the “self-splicing fitness (ln)” value (37 °C) was -1.53 ± 0.2.
In the same order, the values of GAAAAGCAAUAUUACGCAAA are -0.0354 ± 0.26 and -1.79 ± 0.32.
Regarding GAACAGCAAUAUUACGUUGU, the “self-splicing fitness (ln)” value was -3.8 ± 0.21 (30 °C) and -2.24 ± 0.12 (37 °C).
As to GUAAAGCAAUAUUACGGAGG, the “self-splicing fitness (ln)” value reads like this: (30 °C) -3.29 ± 0.37; (37 °C) -2.45 ± 0.38.
As for GCCGAGCAAUAUUACGGCUG, the “self-splicing fitness (ln)” value was -3.31 ± 0.34 (30 °C) and -2.96 ± 0.38 (37 °C).
With GGACAGCAAUAUUACGGCCC, the “self-splicing fitness (ln)” value (30 °C) was -1.7 ± 0.46.
Same read-out and setting: the same measure for GAAGAGCAAUAUUACGCUGG: -1.92 ± 0.24.
For the sequence CAAAAGCAAUAUUACGCUCC, the “self-splicing fitness (ln)” value reads like this: (30 °C) -2.23 ± 0.22; (37 °C) -1.99 ± 0.29.
For UAUAAGCAAUAUUACGCUGC, the “self-splicing fitness (ln)” value (30 °C) was -3.35 ± 0.32.
In the case of AAGCAGCAAUAUUACGAAUA, the “self-splicing fitness (ln)” value is, setting by setting: (30 °C) -2.44 ± 0.16; (37 °C) -1.21 ± 0.12.
For UUCGAGCAAUAUUACGACCU the same measures were -1.7 ± 0.43 and 1.25 ± 0.38.
In the same order, the values of GAAGAGCAAUAUUACGAAAC are -2.57 ± 0.27 and -1.38 ± 0.39.
In the same order, the values of CGUUAGCAAUAUUACGCGCU are -1.9 ± 0.2 and -1.73 ± 0.17.
On to CUGUAGCAAUAUUACGUCGU, for which the “self-splicing fitness (ln)” value runs as follows: (30 °C) -2.99 ± 0.31; (37 °C) -1.8 ± 0.28.
In the same order, the values of AUGAAGCAAUAUUACGAGAG are -2.78 ± 0.15 and -0.788 ± 0.1.
Take CGCUAGCAAUAUUACGUUUA: the “self-splicing fitness (ln)” value (30 °C) was -3.37 ± 0.23 and the “self-splicing fitness (ln)” value (37 °C) is -2.56 ± 0.18.
In the same order, the values of GACAAGCAAUAUUACGGAAG are -2.75 ± 0.21 and -3.29 ± 0.37.
Regarding UCAUAGCAAUAUUACGCUAA, the “self-splicing fitness (ln)” value was -3.23 ± 0.37 (30 °C) and -2.07 ± 0.29 (37 °C).
In the same order, the values of CAGUAGCAAUAUUACGCUAU are -3.57 ± 0.23 and -3.27 ± 0.32.
For the sequence AACAAGCAAUAUUACGAGCA, the “self-splicing fitness (ln)” value was -1.22 ± 0.099 (30 °C) and -0.153 ± 0.11 (37 °C).
For CAAUAGCAAUAUUACGACUU the same measures were -3.35 ± 0.24 and -0.264 ± 0.23.
With AGUGAGCAAUAUUACGUGGC, the “self-splicing fitness (ln)” value (37 °C) was -1.94 ± 0.33.
Turning to GCGCAGCAAUAUUACGCCUU, the “self-splicing fitness (ln)” value (30 °C) is -2.92 ± 0.23 and the “self-splicing fitness (ln)” value (37 °C) is 0.19 ± 0.14.
For UCCGAGCAAUAUUACGAGCA the same measures were -1.02 ± 0.1 and -0.767 ± 0.097.
For CAAUAGCAAUAUUACGCCUA the same measures were -2.01 ± 0.22 and -1.74 ± 0.18.
